One may read the pKa as the pH at which an ionisable group is half protonated.

This series concerns the target Cys151 (UniProt position 151, SMGEKCVLHVM). In words: chemical modification (fluorescence detection). The settings on record: 25 °C; 15 mM acetate/15 mM MES/30 mM Tris; Reduced (DTT-treated, desalted) free BTB domain, folded, no ligand.

Consider “Kelch-like ECH-associated protein 1 (KEAP1), BTB domain (Homo sapiens; S172A)”, for which the pKa is 6.90 ± 0.05.

These data come from paper PMC12634842.
